In patent US20160031999A1 (CSL, published 2016):

Legend:
[1] = biological target: T1, human IL-11Rα (form used in the assay not stated) (human, UniProt Q14626 23-363, limits assumed); experiment: Biacore, pH 8.5, 37°C
T1 construct: also called hIL-11R; hIL-11Rα
T1 sequence: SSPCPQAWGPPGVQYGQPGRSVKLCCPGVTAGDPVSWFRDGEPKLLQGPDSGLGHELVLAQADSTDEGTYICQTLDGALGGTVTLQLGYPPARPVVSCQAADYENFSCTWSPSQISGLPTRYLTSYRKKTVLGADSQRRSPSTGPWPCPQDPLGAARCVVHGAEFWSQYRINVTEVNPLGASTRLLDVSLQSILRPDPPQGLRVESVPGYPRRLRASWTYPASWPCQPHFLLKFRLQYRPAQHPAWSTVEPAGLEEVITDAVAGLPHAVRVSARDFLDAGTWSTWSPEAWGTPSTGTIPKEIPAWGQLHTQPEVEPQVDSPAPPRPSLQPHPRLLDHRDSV

[2] = biological target: T2, human IL-11Rα on transfected cells (human, UniProt Q14626 23-422); experiment: cell-based or functional assay
T2 sequence: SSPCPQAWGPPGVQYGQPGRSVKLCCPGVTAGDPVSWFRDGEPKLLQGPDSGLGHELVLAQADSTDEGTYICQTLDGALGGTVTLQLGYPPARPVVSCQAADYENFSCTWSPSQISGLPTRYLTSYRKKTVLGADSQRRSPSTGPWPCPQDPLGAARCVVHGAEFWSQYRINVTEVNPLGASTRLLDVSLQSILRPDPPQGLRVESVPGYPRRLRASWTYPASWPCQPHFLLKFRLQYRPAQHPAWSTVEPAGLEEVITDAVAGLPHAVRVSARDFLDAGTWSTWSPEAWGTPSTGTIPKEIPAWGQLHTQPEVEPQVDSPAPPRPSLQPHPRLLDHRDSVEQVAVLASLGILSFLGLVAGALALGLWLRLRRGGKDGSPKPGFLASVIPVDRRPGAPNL

B1: hu8E2-TS-20 (antibody, V domains shown)
VH: EVQLLESGGGLVQPGGSLRLSCAASGFTFSWYSMTWVRQAPGKGLEWVSSIVPSGGHTQYADSVKGRFTISRDNSKNTLYLQMNSLRAEDTAVYYCAKGPGWGSFDLWGRGTLVTVSS
VL: DIQMTQSPSSLSASVGDRVTITCQASQDINNYLNWYQQKPGKAPKLLIYDASNLQTGVPSRFSGSGSGTDFTFTISSLQPEDIATYYCQQNESQSPTFGPGTKVDIK
Kd [1]: 0.284 nM
Fold increase in potency relative to 8E2 [2]: 0.6 fold
IC50 [2]: 1.3 µg/mL

B2: hu8E2-TS-22 (antibody, V domains shown)
VH: EVQLLESGGGLVQPGGSLRLSCAASGFTFSWYSMTWVRQAPGKGLEWVSSIVPSGGHTQYADSVKGRFTISRDNSKNTLYLQMNSLRAEDTAVYYCAKGPGWGSFDLWGRGTLVTVSS
VL: DIQMTQSPSSLSASVGDRVTITCQASQDINNYLNWYQQKPGKAPKLLIYDASNLQTGVPSRFSGSGSGTDFTFTISSLQPEDIATYYCQQFETQSPTFGPGTKVDIK
Kd [1]: 0.838 nM
Fold increase in potency relative to 8E2 [2]: 2 fold
IC50 [2]: 0.4 µg/mL

B3: hu8E2-TS-49 (antibody, V domains shown)
VH: EVQLLESGGGLVQPGGSLRLSCAASGFTFSWYSMTWVRQAPGKGLEWVSSIVPSGGHTQYADSVKGRFTISRDNSKNTLYLQMNSLRAEDTAVYYCAKGPGWGSFDLWGRGTLVTVSS
VL: DIQMTQSPSSLSASVGDRVTITCQASQDINNYLNWYQQKPGKAPKLLIYDASNLQTGVPSRFSGSGSGTDFTFTISSLQPEDIATYYCQQYESQAPEFGPGTKVDIK
Kd [1]: 1.5 nM
Fold increase in potency relative to 8E2 [2]: 5.2 fold
IC50 [2]: 0.19 µg/mL

B4: hu8E2-TS-57 (antibody, V domains shown)
VH: EVQLLESGGGLVQPGGSLRLSCAASGFTFSWYSMTWVRQAPGKGLEWVSSIVPSGGHTQYADSVKGRFTISRDNSKNTLYLQMNSLRAEDTAVYYCAKGPGWGSFDLWGRGTLVTVSS
VL: DIQMTQSPSSLSASVGDRVTITCQASQDINNYLNWYQQKPGKAPKLLIYDASNLQTGVPSRFSGSGSGTDFTFTISSLQPEDIATYYCQQYETQMPLFGPGTKVDIK
Kd [1]: 0.658 nM
Fold increase in potency relative to 8E2 [2]: 3.9 fold
IC50 [2]: 0.25 µg/mL

B5: hu8E2-TS-58 (antibody, V domains shown)
VH: EVQLLESGGGLVQPGGSLRLSCAASGFTFSWYSMTWVRQAPGKGLEWVSSIVPSGGHTQYADSVKGRFTISRDNSKNTLYLQMNSLRAEDTAVYYCAKGPGWGSFDLWGRGTLVTVSS
VL: DIQMTQSPSSLSASVGDRVTITCQASQDINNYLNWYQQKPGKAPKLLIYDASNLQTGVPSRFSGSGSGTDFTFTISSLQPEDIATYYCQQYETQQPFFGPGTKVDIK
Kd [1]: 0.957 nM
Fold increase in potency relative to 8E2 [2]: 6 fold
IC50 [2]: 0.23 µg/mL

B6: hu8E2-TS-71 (antibody, V domains shown)
VH: EVQLLESGGGLVQPGGSLRLSCAASGFTFWRWSTTWVRQAPGKGLEWVSSIVPSGGHTQYADSVKGRFTISRDNSKNTLYLQMNSLRAEDTAVYYCAKGPGWGSFDLWGRGTLVTVSS
VL: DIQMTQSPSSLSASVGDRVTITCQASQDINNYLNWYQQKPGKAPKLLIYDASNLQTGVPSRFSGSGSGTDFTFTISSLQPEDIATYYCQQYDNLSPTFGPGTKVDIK
Kd [1]: 2.49 nM
Fold increase in potency relative to 8E2 [2]: 3.8 fold
IC50 [2]: 0.29 µg/mL

B7: hu8E2-TS-32 (antibody, V domains shown)
VH: EVQLLESGGGLVQPGGSLRLSCAASGFTFSWYSMTWVRQAPGKGLEWVSSIVPSGGHTQYADSVKGRFTISRDNSKNTLYLQMNSLRAEDTAVYYCAKGPGWGSFDLWGRGTLVTVSS
VL: DIQMTQSPSSLSASVGDRVTITCQASQDINNYLNWYQQKPGKAPKLLIYDASNLQTGVPSRFSGSGSGTDFTFTISSLQPEDIATYYCTQWETQSPTFGPGTKVDIK
Kd [1]: 9.56 nM
Fold increase in potency relative to 8E2 [2]: 2.4 fold
IC50 [2]: 0.41 µg/mL

B8: hu8E2-TS-51 (antibody, V domains shown)
VH: EVQLLESGGGLVQPGGSLRLSCAASGFTFSWYSMTWVRQAPGKGLEWVSSIVPSGGHTQYADSVKGRFTISRDNSKNTLYLQMNSLRAEDTAVYYCAKGPGWGSFDLWGRGTLVTVSS
VL: DIQMTQSPSSLSASVGDRVTITCQASQDINNYLNWYQQKPGKAPKLLIYDASNLQTGVPSRFSGSGSGTDFTFTISSLQPEDIATYYCQQYESQWPFFGPGTKVDIK
Kd [1]: 0.455 nM
Fold increase in potency relative to 8E2 [2]: 3.6 fold
IC50 [2]: 0.28 µg/mL

B9: hu8E2-TS-21 (antibody, V domains shown)
VH: EVQLLESGGGLVQPGGSLRLSCAASGFTFSWYSMTWVRQAPGKGLEWVSSIVPSGGHTQYADSVKGRFTISRDNSKNTLYLQMNSLRAEDTAVYYCAKGPGWGSFDLWGRGTLVTVSS
VL: DIQMTQSPSSLSASVGDRVTITCQASQDINNYLNWYQQKPGKAPKLLIYDASNLQTGVPSRFSGSGSGTDFTFTISSLQPEDIATYYCQQSESQSPTFGPGTKVDIK
Kd [1]: 0.23 nM
Fold increase in potency relative to 8E2 [2]: 2.7 fold
IC50 [2]: 0.31 µg/mL

B10: hu8E2-TS-64 (antibody, V domains shown)
VH: EVQLLESGGGLVQPGGSLRLSCAASGFTFSWYSMTWVRQAPGKGLEWVSSIVPSGGHTQYADSVKGRFTISRDNSKNTLYLQMNSLRAEDTAVYYCAKGPGWGSFDLWGRGTLVTVSS
VL: DIQMTQSPSSLSASVGDRVTITCQASQDINNYLNWYQQKPGKAPKLLIYDASNLQTGVPSRFSGSGSGTDFTFTISSLQPEDIATYYCQQYESQWPQFGPGTKVDIK
Kd [1]: 0.636 nM
Fold increase in potency relative to 8E2 [2]: 5.4 fold
IC50 [2]: 0.26 µg/mL

B11: hu8E2-TS-29 (antibody, V domains shown)
VH: EVQLLESGGGLVQPGGSLRLSCAASGFTFSWYSMTWVRQAPGKGLEWVSSIVPSGGHTQYADSVKGRFTISRDNSKNTLYLQMNSLRAEDTAVYYCAKGPGWGSFDLWGRGTLVTVSS
VL: DIQMTQSPSSLSASVGDRVTITCQASQDINNYLNWYQQKPGKAPKLLIYDASNLQTGVPSRFSGSGSGTDFTFTISSLQPEDIATYYCQQSEEQSPTFGPGTKVDIK
Kd [1]: 1.06 nM
Fold increase in potency relative to 8E2 [2]: 2.5 fold
IC50 [2]: 0.33 µg/mL

B12: hu8E2-TS-63 (antibody, V domains shown)
VH: EVQLLESGGGLVQPGGSLRLSCAASGFTFSWYSMTWVRQAPGKGLEWVSSIVPSGGHTQYADSVKGRFTISRDNSKNTLYLQMNSLRAEDTAVYYCAKGPGWGSFDLWGRGTLVTVSS
VL: DIQMTQSPSSLSASVGDRVTITCQASQDINNYLNWYQQKPGKAPKLLIYDASNLQTGVPSRFSGSGSGTDFTFTISSLQPEDIATYYCQQYDTQQPNFGPGTKVDIK
Kd [1]: 0.642 nM
Fold increase in potency relative to 8E2 [2]: 5.1 fold
IC50 [2]: 0.27 µg/mL

B13: hu8E2-TS-55 (antibody, V domains shown)
VH: EVQLLESGGGLVQPGGSLRLSCAASGFTFSWYSMTWVRQAPGKGLEWVSSIVPSGGHTQYADSVKGRFTISRDNSKNTLYLQMNSLRAEDTAVYYCAKGPGWGSFDLWGRGTLVTVSS
VL: DIQMTQSPSSLSASVGDRVTITCQASQDINNYLNWYQQKPGKAPKLLIYDASNLQTGVPSRFSGSGSGTDFTFTISSLQPEDIATYYCQQYETQTPAFGPGTKVDIK
Kd [1]: 0.483 nM
Fold increase in potency relative to 8E2 [2]: 4.8 fold
IC50 [2]: 0.21 µg/mL

B14: hu8E2-TS-66 (antibody, V domains shown)
VH: EVQLLESGGGLVQPGGSLRLSCAASGFTFAWWSIAWVRQAPGKGLEWVSSIVPSGGHTQYADSVKGRFTISRDNSKNTLYLQMNSLRAEDTAVYYCAKGPGWGSFDLWGRGTLVTVSS
VL: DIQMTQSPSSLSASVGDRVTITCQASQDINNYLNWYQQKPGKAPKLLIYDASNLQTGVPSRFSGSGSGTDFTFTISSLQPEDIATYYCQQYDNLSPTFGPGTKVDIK
Kd [1]: 7.46 nM
Fold increase in potency relative to 8E2 [2]: 0.5 fold
IC50 [2]: 2.84 µg/mL

B15: hu8E2-TS-69 (antibody, V domains shown)
VH: EVQLLESGGGLVQPGGSLRLSCAASGFTFGWWSVTWVRQAPGKGLEWVSSIVPSGGHTQYADSVKGRFTISRDNSKNTLYLQMNSLRAEDTAVYYCAKGPGWGSFDLWGRGTLVTVSS
VL: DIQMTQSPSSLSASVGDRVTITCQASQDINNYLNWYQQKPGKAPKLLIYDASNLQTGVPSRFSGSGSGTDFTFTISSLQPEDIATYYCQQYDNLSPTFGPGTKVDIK
Kd [1]: 3.56 nM
Fold increase in potency relative to 8E2 [2]: 0.9 fold
IC50 [2]: 1.46 µg/mL
